Experimental data taken from publication PMC3899036, “Subunit Positioning and Stator Filament Stiffness in Regulation and Power Transmission in the V1 Motor of the Manduca sexta V-ATPase^☆” (Journal of Molecular Biology, 2014).

How the values were obtained:
[1] = target: recombinant His6-tagged V-ATPase subunit C (Manduca sexta) (UniProt Q9U5N1); assay: SEC; V1 incubated with C-His6, Superose-6 column, 20 mM Tris-HCl, 100 mM NaCl, 10 mM KCl, 2 mM 2-mercaptoethanol, pH 8.0, 0.25 ml/min; fractions on SDS-PAGE with densitometry; apparent stoichiometry
recombinant His6-tagged V-ATPase subunit C (Manduca sexta), sequence (Q9U5N1 whole entry): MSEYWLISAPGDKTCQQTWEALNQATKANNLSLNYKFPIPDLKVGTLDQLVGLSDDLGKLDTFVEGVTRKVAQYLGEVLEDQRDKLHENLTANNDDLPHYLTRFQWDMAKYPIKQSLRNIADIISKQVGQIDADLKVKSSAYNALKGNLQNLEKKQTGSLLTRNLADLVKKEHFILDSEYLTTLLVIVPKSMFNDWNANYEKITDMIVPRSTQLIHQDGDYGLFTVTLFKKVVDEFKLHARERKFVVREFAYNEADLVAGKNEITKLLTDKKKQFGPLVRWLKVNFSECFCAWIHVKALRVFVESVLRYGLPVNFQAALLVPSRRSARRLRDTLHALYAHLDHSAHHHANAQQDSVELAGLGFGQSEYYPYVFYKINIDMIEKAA

[2] = target: T1, Manduca sexta V-ATPase subunit B (Manduca sexta (tobacco hornworm), UniProt P31401 1-494); assay: cryo-EM structure; V1 mixed with recombinant C for 1 h at 4 °C (1:5 V1:C molar ratio), Lacey grids, plunge-frozen; 20 Å reconstruction of V1(+C), homologous crystal structures fitted; conditions: both partners purified
T1 construct: V-ATPase subunit B, Manduca sexta; 56 kDa on SDS-PAGE; Seen as part of the V1 complex in the cryo-EM reconstruction; also called B subunits; source: endogenous, within V1 purified from Manduca sexta
T1 sequence (P31401 whole entry): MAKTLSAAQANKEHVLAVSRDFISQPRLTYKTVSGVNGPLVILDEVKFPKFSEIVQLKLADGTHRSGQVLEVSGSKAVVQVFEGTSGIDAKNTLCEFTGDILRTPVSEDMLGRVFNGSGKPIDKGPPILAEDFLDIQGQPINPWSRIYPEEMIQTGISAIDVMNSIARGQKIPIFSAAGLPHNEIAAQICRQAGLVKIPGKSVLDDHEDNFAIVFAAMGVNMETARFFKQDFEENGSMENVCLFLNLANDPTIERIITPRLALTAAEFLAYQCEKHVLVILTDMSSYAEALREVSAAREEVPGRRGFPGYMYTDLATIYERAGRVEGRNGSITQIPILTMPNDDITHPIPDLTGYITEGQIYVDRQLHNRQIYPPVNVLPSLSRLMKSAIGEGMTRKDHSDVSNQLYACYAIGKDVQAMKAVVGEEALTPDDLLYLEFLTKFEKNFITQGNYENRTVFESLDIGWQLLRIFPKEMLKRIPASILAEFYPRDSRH

Molecule: Manduca sexta V-ATPase V1 domain (deactivated, washed with 25% methanol to remove residual subunit C) (complex)
- stoichiometry N (C per V1 (1 per H, 1 per 3 A)) [1]: 1

B1: Manduca sexta V-ATPase subunit E (natural protein, Manduca sexta (tobacco hornworm), UniProt P31402 1-226, looked up)
chain: MALSDADVQKQIKHMMAFIEQEANEKAEEIDAKAEEEFNIEKGRLVQQQRLKIMEYYEKKEKQVELQKKIQSSNMLNQARLKVLKVREDHVRNVLDEARKRLAEVPKDIKLYSDLLVTLIVQALFQLVEPTVTLRVRQADKALVESLLGRAQQDYKAKIKKDVVLKIDNENFLPPDTCGGIELIAAKGRIKISNTLESRLELIAQQLLPEIRNALFGRNPNRKFTD
notes: V-ATPase subunit E, Manduca sexta; 26 kDa on SDS-PAGE; Seen as part of the V1 complex in the cryo-EM reconstruction; also called subunit E of the E/G stator filaments S1-S3; source: endogenous, within V1 purified from Manduca sexta
- binding result [2]: binds
